In US20120316071A1 (published 2012):
Values belong to the binder of their own block, whether it stands above or below them.

Experiments:
[1] = target: T1, rHuman CD44/Fc Chimera, CF (R&D Systems Cat#3660-CD) (human, UniProt P16070 21-220); experiment: ECL multispot (MSD) assay, antigen spotted on plate, Fab in solution; blank spot of this well 204
T1 construct: Bought recombinant protein

[2] = target: T2, rHuman ErbB2/Fc Chimera, CF (R&D Systems Cat#1129-ER) (human, UniProt P04626 23-652); experiment: as above
T2 construct: Bought recombinant protein; also called human epidermal growth factor 2 receptor

[3] = target: T3, rHuman Erythropoietin R/Fc Chimera, CF (R&D Systems Cat#963-ER) (human, UniProt P19235 25-250); experiment: as above
T3 construct: Bought recombinant protein; also called EPO R; EPO R/Fc

[4] = target: T4, Recombinant Human DLL4 (R&D Systems Cat#1506-D4/CF) (human, UniProt Q9NR61 27-524); experiment: as above
T4 construct: Bought recombinant protein; also called delta-like protein 4; rHuman DLL4

[5] = target: T5, rHuman EGF R/Fc Chimera, CF (R&D Systems Cat#344-ER) (human, UniProt P00533 25-645); experiment: as above
T5 construct: Bought recombinant protein; also called epidermal growth factor receptor

[6] = target: T6, rHuman HGF R/c-MET/Fc Chimera, CF (R&D Systems Cat#358-MT/CF) (human, UniProt P08581 25-932); experiment: as above
T6 construct: Bought recombinant protein; also called HGF R/Fc; hepatocyte growth factor receptor

[7] = target: T7, rHuman P-Cadherin/Fc Chimera, CF (R&D Systems Cat#861-PC) (human, UniProt P22223 108-654); experiment: as above
T7 construct: Bought recombinant protein

[8] = target: T8, rHuman IGF-1 sR (insulin-like growth factor-1 soluble receptor), CF (R&D Systems Cat#391-GR) (human, UniProt P08069 31-932); experiment: as above
T8 construct: Bought recombinant soluble receptor

[9] = target: T9, rHuman Notch-1/Fc Chimera, CF (R&D Systems Cat#3647-TK) (human); experiment: as above
T9 construct: Bought recombinant protein

[10] = target: T1, rHuman CD44/Fc Chimera, CF (R&D Systems …); experiment: ECL multispot (MSD) assay, antigen spotted on plate, Fab in solution; blank spot of this well 271
[11] = target: T2, rHuman ErbB2/Fc Chimera, CF (R&D …); experiment: as above
[12] = target: T3, rHuman Erythropoietin R/Fc Chimera, CF …; experiment: as above
[13] = target: T4, Recombinant Human DLL4 (R&D Systems …); experiment: as above
[14] = target: T5, rHuman EGF R/Fc Chimera, CF (R&D …); experiment: as above
[15] = target: T6, rHuman HGF R/c-MET/Fc Chimera, CF (R&D …); experiment: as above
[16] = target: T7, rHuman P-Cadherin/Fc Chimera, CF (R&D …); experiment: as above
[17] = target: T8, rHuman IGF-1 sR (insulin-like growth …); experiment: as above
[18] = target: T9, rHuman Notch-1/Fc Chimera, CF (R&D …); experiment: as above
[19] = target: T1, rHuman CD44/Fc Chimera, CF (R&D Systems …); experiment: ECL multispot (MSD) assay, antigen spotted on plate, Fab in solution; blank spot of this well 224
[20] = target: T2, rHuman ErbB2/Fc Chimera, CF (R&D …); experiment: as above
[21] = target: T3, rHuman Erythropoietin R/Fc Chimera, CF …; experiment: as above
[22] = target: T4, Recombinant Human DLL4 (R&D Systems …); experiment: as above
[23] = target: T5, rHuman EGF R/Fc Chimera, CF (R&D …); experiment: as above
[24] = target: T6, rHuman HGF R/c-MET/Fc Chimera, CF (R&D …); experiment: as above
[25] = target: T7, rHuman P-Cadherin/Fc Chimera, CF (R&D …); experiment: as above
[26] = target: T8, rHuman IGF-1 sR (insulin-like growth …); experiment: as above
[27] = target: T9, rHuman Notch-1/Fc Chimera, CF (R&D …); experiment: as above
[28] = target: T10, rHuman Erythropoietin R/Fc Chimera, CF (R&D Systems Cat#963-ER) (human, UniProt P19235 25-250); experiment: ECL multispot (MSD) assay, antigen spotted on plate, Fab in solution; blank spot of this well 270
[29] = target: T11, rHuman P-Cadherin/Fc Chimera, CF (R&D Systems Cat#861-PC) (human, UniProt P22223 108-654); experiment: as above
[30] = target: T12, rHuman Notch-1/Fc Chimera, CF (R&D Systems Cat#3647-TK) (human); experiment: as above
T12 chain: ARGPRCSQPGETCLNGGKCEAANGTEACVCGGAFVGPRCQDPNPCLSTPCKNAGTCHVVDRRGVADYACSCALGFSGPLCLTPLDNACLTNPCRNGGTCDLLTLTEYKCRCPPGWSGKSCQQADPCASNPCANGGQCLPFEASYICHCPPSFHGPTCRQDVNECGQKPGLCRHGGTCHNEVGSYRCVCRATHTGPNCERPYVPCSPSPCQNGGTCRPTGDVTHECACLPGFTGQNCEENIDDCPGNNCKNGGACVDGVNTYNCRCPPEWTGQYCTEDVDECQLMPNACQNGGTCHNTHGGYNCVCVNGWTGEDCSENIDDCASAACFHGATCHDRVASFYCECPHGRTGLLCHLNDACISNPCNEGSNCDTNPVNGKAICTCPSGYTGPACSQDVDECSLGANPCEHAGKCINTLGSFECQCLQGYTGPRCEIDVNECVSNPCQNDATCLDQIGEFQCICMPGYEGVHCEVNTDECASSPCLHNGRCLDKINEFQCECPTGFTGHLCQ

[31] = target: T13, rHuman HGF R/c-MET/Fc Chimera, CF (R&D Systems Cat#358-MT/CF) (human, UniProt P08581 25-932); experiment: as above
[32] = target: T14, rHuman CD44/Fc Chimera, CF (R&D Systems Cat#3660-CD) (human, UniProt P16070 21-220); experiment: as above
[33] = target: T10, rHuman Erythropoietin R/Fc Chimera, CF …; experiment: ECL multispot (MSD) assay, antigen spotted on plate, Fab in solution; blank spot of this well 338
[34] = target: T11, rHuman P-Cadherin/Fc Chimera, CF (R&D …); experiment: as above
[35] = target: T12, rHuman Notch-1/Fc Chimera, CF (R&D …); experiment: as above
[36] = target: T13, rHuman HGF R/c-MET/Fc Chimera, CF (R&D …); experiment: as above
[37] = target: T14, rHuman CD44/Fc Chimera, CF (R&D Systems …); experiment: as above

ECL signal [1]: 96
ECL signal [2]: 157
ECL signal [3]: 329
ECL signal [4]: 2120
ECL signal [5]: 237
ECL signal [6]: 272
ECL signal [7]: 208
ECL signal [8]: 197
ECL signal [9]: 334
ECL signal [10]: 189
ECL signal [11]: 330
ECL signal [12]: 304
ECL signal [13]: 3480
ECL signal [14]: 272
ECL signal [15]: 306
ECL signal [16]: 297
ECL signal [17]: 241
ECL signal [18]: 257
ECL signal [19]: 197
ECL signal [20]: 149
ECL signal [21]: 0
ECL signal [22]: 2830
ECL signal [23]: 279
ECL signal [24]: 275
ECL signal [25]: 171
ECL signal [26]: 168
ECL signal [27]: 171
B1: Fab VH1-46_IGHD6-6*01_IGHJ1*01 S102A/S103P/S104F (APF) & L6_IGKJ1*01 (Fab, V domains shown)
VH: QVQLVQSGAEVKKPGASVKVSCKASGYTFTSYYMHWVRQAPGQGLEWMGIINPSGGSTSYAQKFQGRVTMTRDTSTSTVYMELSSLRSEDTAVYYCAREEYAPFSAEYFQHWGQGTLVTVSS
VL: not shown
notes: Fab made in E. coli (heavy chain in plasmid A with CH1, His6 and Flag tags; kappa light chain in plasmid C); also called APF / parent; H:APF & L:wt

ECL signal [28]: 541
ECL signal [29]: 499
ECL signal [30]: 453
ECL signal [31]: 380
ECL signal [32]: 333
B2: Fab VH1-46_IGHD6-6*01_IGHJ1*01 S102A/S103P/S104F/H111F (APFF) & L6_IGKJ1*01 N93Y (Fab, V domains shown)
VH: QVQLVQSGAEVKKPGASVKVSCKASGYTFTSYYMHWVRQAPGQGLEWMGIINPSGGSTSYAQKFQGRVTMTRDTSTSTVYMELSSLRSEDTAVYYCAREEYAPFSAEYFQFWGQGTLVTVSS
VL: EIVLTQSPATLSLSPGERATLSCRASQSVSSYLAWYQQKPGQAPRLLIYDASNRATGIPARFSGSGSGTDFTLTISSLEPEDFAVYYCQQRSYWPPWTFGQGTKVEIKR
notes: Fab made in E. coli (heavy chain in plasmid A with CH1, His6 and Flag tags; kappa light chain in plasmid C); also called APFF / N93Y

ECL signal [33]: 302
ECL signal [34]: 265
ECL signal [35]: 125
ECL signal [36]: 335
ECL signal [37]: 156
B3: Fab VH1-46_IGHD6-6*01_IGHJ1*01 S102A/S103P/S104F (APF) & L6_IGKJ1*01 S92C (Fab, V domains shown)
VH: QVQLVQSGAEVKKPGASVKVSCKASGYTFTSYYMHWVRQAPGQGLEWMGIINPSGGSTSYAQKFQGRVTMTRDTSTSTVYMELSSLRSEDTAVYYCAREEYAPFSAEYFQHWGQGTLVTVSS
VL: EIVLTQSPATLSLSPGERATLSCRASQSVSSYLAWYQQKPGQAPRLLIYDASNRATGIPARFSGSGSGTDFTLTISSLEPEDFAVYYCQQRCNWPPWTFGQGTKVEIKR
notes: Fab made in E. coli (heavy chain in plasmid A with CH1, His6 and Flag tags; kappa light chain in plasmid C); also called APF / S92C
